From patent US20140287471A1, “VARIANT CBH I POLYPEPTIDES WITH REDUCED PRODUCT INHIBITION” (BP CORPORATION NORTN AMERICA INC., priority 2011, published 2014)
Substitutions are numbered along the chain they refer to.

B1: 268A+411— Glu (protein, UniProt P62694 18-513, looked up, variant R268A R411E)
Exoglucanase 1: QSACTLQSETHPPLTWQKCSSGGTCTQQTGSVVIDANWRWTHATNSSTNCYDGNTWSSTLCPDNETCAKNCCLDGAAYASTYGVTTSGNSLSIGFVTQSAQKNVGARLYLMASDTTYQEFTLLGNEFSFDVDVSQLPCGLNGALYFVSMDADGGVSKYPTNTAGAKYGTGYCDSQCPRDLKFINGQANVEGWEPSSNNANTGIGGHGSCCSEMDIWEANSISEALTPHPCTTVGQEICEGDGCGGTYSDNAYGGTCDPDGCDWNPYRLGNTSFYGPGSSFTLDTTKKLTVVTQFETSGAINRYYVQNGVTFQQPNAELGSYSGNELNDDYCTAEEAEFGGSSFSDKGGLTQFKKATSGGMVLVMSLWDDYYANMLWLDSTYPTNETSSTPGAVEGSCSTSSGVPAQVESQSPNAKVTFSNIKFGPIGSTGNPSGGNPPGGNRGTTTTRRPATTTGSSPGPTQSHYGQCGGIGYSGPTVCASGTTCQVLNPYYSQCL
B2: 411— Ser (protein, UniProt P62694 18-513, looked up, variant R411S)
Exoglucanase 1: B1 Exoglucanase 1 with A251R, E394S
B3: 411— Tyr (protein, UniProt P62694 18-513, looked up, variant R411Y)
Exoglucanase 1: B1 Exoglucanase 1 with A251R, E394Y
B4: 411— Glu (protein, UniProt P62694 18-513, looked up, variant R411E)
Exoglucanase 1: B1 Exoglucanase 1 with A251R
B5: 268A+411— Met (protein, UniProt P62694 18-513, looked up, variant R268A R411M)
Exoglucanase 1: B1 Exoglucanase 1 with E394M
B6: 268A+411— Gly (protein, UniProt P62694 18-513, looked up, variant R268A R411G)
Exoglucanase 1: B1 Exoglucanase 1 with E394G
B7: 411— Cys (protein, UniProt P62694 18-513, looked up, variant R411C)
Exoglucanase 1: B1 Exoglucanase 1 with A251R, E394C
B8: 268— Ala (protein, UniProt P62694 18-513, looked up, variant R268A)
Exoglucanase 1: B1 Exoglucanase 1 with E394R
B9: 411— Asp (protein, UniProt P62694 18-513, looked up, variant R411D)
Exoglucanase 1: B1 Exoglucanase 1 with A251R, E394D
B10: 268A+411— Cys (protein, UniProt P62694 18-513, looked up, variant R268A R411C)
Exoglucanase 1: B1 Exoglucanase 1 with E394C
B11: 268Ser (protein, UniProt P62694 18-513, looked up, variant R268S)
Exoglucanase 1: B1 Exoglucanase 1 with A251S, E394R
B12: 268Glu (protein, UniProt P62694 18-513, looked up, variant R268E)
Exoglucanase 1: B1 Exoglucanase 1 with A251E, E394R
B13: 411His (protein, UniProt P62694 18-513, looked up, variant R411H)
Exoglucanase 1: B1 Exoglucanase 1 with A251R, E394H
B14: 411Arg (protein, UniProt P62694 18-513, looked up)
Exoglucanase 1: B1 Exoglucanase 1 with A251R, E394R
B15: 411Ser (protein, UniProt P62694 18-513, looked up, variant R411S)
Exoglucanase 1: B1 Exoglucanase 1 with A251R, E394S
B16: 411Thr (protein, UniProt P62694 18-513, looked up, variant R411T)
Exoglucanase 1: B1 Exoglucanase 1 with A251R, E394T
B17: 268A+411Asp (protein, UniProt P62694 18-513, looked up, variant R268A R411D)
Exoglucanase 1: B1 Exoglucanase 1 with E394D
B18: 268A+411Thr (protein, UniProt P62694 18-513, looked up, variant R268A R411T)
Exoglucanase 1: B1 Exoglucanase 1 with E394T
B19: 268A+411Gln (protein, UniProt P62694 18-513, looked up, variant R268A R411Q)
Exoglucanase 1: B1 Exoglucanase 1 with E394Q
B20: 268A+411Glu (protein, UniProt P62694 18-513, looked up, variant R268A R411E)
Exoglucanase 1: B1 Exoglucanase 1

Experiment: 4-MUL cellobiose tolerance/inhibition assay, dose-response IC50 (Example 2)
Assay type: biochemical
Conditions: 1 mM cellobiose; primary screening; n=1
Outline: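 IC50 reflects cellobiose concentration halving activity, fitted by four-parameter dose-response with zero activity fixed at knockout-strain background. Assays used 4-MUL (0.5 mM) with enzyme at 5 μg/mL or less, pH 6 MES, 25 mM gluconolactone blocking BG, cellobiose up to 100 mM; 4-MU fluorescence read.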

Molecule	Tolerance at 1 mM CB (MUL Data)
B1	95%
B2	60%
B3	85%
B4	76%
B5	97%
B6	91%
B7	71%
B8	48%
B9	106%
B10	85%

Same assay, conditions: 268 single substitution; averaged IC50 from Tables 8-11; read-out: 268— Measured (merged IC50)

Molecule	IC50
B11	500 µM
B12	630 µM

Same assay, conditions: 411 single substitution; averaged IC50 from Tables 8-11; read-out: 411— Measured (merged IC50)

Molecule	IC50
B13	2930 µM
B14	50 µM
B15	870 µM
B16	1970 µM

Same assay, conditions: double mutant 268A+411X; averaged IC50 from Tables 8-11; read-out: 268A+411— Measured (merged IC50)

Molecule	IC50
B17	11500 µM
B18	11700 µM
B19	13700 µM
B20	14400 µM

Same assay, conditions: double mutant 268A+411X; expected IC50 (additive values of single mutations); read-out: 268A+411— Expected IC50

Molecule	IC50
B17	2280 µM
B18	2540 µM
B19	3090 µM
B20	3810 µM

Same assay, conditions: double mutant 268A+411X; measured versus expected additive IC50

Molecule	synergy of double mutant (measured vs expected additive IC50)
B17	5.0
B18	4.6
B19	4.5
B20	3.8

Same assay, conditions: primary screening; 10 μL enzyme; cellobiose range 0.0001-100 mM; n=1; read-out: IC50 (MUL Data)

Molecule	IC50
B1	16900 µM
B2	1050 µM
B3	5400 µM
B4	2950 µM
B5	11500 µM
B6	12100 µM
B7	1600 µM
B8	870 µM
B9	2080 µM
B10	7660 µM

Experiment: 4-MUL assay, specific activity (Example 2)
Assay type: biochemical
Conditions: 268 single substitution
Outline: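 Specific activity derived from 4-MU standard curves and HPLC-quantified enzyme. Initial rates were taken over the first 15 min, with an endpoint read at 1 h (pH 10 carbonate quench), all at ex 365/em 450 nm. Conditions: 0.5 mM 4-MUL, 5 μg/mL enzyme, MES pH 6, 25 mM gluconolactone, cellobiose optional.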

Molecule	268— Measured Specific Activity (SA)	268— Δ SA* (change in specific activity; ratio of variant: WT)
B11	1.85 μmol 4 MU/min/mg CBH I	2.4
B12	1.84 μmol 4 MU/min/mg CBH I	2.4

Same assay, conditions: 411 single substitution

Molecule	411— Measured Specific Activity (SA)	411— Δ SA* (change in specific activity; ratio of variant: WT)
B13	0.80 μmol 4 MU/min/mg CBH I	1.0
B14	0.83 μmol 4 MU/min/mg CBH I	1.1
B15	0.60 μmol 4 MU/min/mg CBH I	0.8
B16	0.48 μmol 4 MU/min/mg CBH I	0.6

Same assay, conditions: double mutant 268A+411X

Molecule	268A+411— Measured Specific Activity (SA)	268A+411— Δ SA* (change in specific activity; ratio of variant: WT)
B17	2.21 μmol 4 MU/min/mg CBH I	2.9
B18	1.78 μmol 4 MU/min/mg CBH I	2.3
B19	1.22 μmol 4 MU/min/mg CBH I	1.6
B20		0.6

Same assay, conditions: primary screening; 10 μL enzyme; n=1

Molecule	SA (μmol 4 MU/min/mg) (MUL Data)
B1	0.74 μmol 4 MU/min/mg
B2	0.51 μmol 4 MU/min/mg
B3	0.67 μmol 4 MU/min/mg
B4	0.38 μmol 4 MU/min/mg
B5	0.87 μmol 4 MU/min/mg
B6	0.88 μmol 4 MU/min/mg
B7	0.52 μmol 4 MU/min/mg
B8	1.42 μmol 4 MU/min/mg
B9	0.23 μmol 4 MU/min/mg
B10	1.58 μmol 4 MU/min/mg
